Data: patent US20240342207, “MODIFIED NUCLEIC ACID COMPOSITIONS AND ASSOCIATED METHODS FOR TREATMENT OF PHENYLKETONURIA” (BOARD OF REGENTS, THE UNIVERSITY OF TEXAS SYSTEM, published 2024)

How the values were obtained:
Experiment in all cases: EMSA; one of 13 of 17 binding mutants; affinity not decreased
Conditions in all cases: tags: His-tag, E. coli; stem-loop
[1] = target: T1, PAH F55L (Homo sapiens, UniProt P00439 P00439:1-452, F55L)
T1 sequence: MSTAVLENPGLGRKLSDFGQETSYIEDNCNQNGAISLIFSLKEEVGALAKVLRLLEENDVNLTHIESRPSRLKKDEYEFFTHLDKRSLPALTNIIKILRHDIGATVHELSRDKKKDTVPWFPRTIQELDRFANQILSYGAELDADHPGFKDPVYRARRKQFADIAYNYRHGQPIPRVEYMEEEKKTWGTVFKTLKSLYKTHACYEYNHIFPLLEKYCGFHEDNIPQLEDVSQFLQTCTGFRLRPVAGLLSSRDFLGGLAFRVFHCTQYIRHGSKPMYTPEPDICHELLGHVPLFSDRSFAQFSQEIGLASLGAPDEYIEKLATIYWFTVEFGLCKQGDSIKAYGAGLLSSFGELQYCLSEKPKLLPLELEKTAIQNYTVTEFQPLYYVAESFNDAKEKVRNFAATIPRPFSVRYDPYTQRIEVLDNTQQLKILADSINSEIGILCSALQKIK

[2] = target: T2, PAH F299C (Homo sapiens, UniProt P00439 P00439:1-452, F299C)
T2 sequence: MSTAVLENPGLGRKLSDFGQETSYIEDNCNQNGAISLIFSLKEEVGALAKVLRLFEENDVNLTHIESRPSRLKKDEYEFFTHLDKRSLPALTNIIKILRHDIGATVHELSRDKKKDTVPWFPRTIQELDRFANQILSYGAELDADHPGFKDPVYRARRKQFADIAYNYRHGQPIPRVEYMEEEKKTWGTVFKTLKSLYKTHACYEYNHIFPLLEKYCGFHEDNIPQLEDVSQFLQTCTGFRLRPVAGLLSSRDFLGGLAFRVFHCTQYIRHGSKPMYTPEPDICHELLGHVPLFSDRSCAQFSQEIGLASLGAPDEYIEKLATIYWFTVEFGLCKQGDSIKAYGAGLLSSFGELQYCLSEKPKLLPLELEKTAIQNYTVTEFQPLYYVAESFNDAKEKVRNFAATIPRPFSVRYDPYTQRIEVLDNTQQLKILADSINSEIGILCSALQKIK

[3] = target: T3, PAH A47V (Homo sapiens, UniProt P00439 P00439:1-452, A47V)
T3 sequence: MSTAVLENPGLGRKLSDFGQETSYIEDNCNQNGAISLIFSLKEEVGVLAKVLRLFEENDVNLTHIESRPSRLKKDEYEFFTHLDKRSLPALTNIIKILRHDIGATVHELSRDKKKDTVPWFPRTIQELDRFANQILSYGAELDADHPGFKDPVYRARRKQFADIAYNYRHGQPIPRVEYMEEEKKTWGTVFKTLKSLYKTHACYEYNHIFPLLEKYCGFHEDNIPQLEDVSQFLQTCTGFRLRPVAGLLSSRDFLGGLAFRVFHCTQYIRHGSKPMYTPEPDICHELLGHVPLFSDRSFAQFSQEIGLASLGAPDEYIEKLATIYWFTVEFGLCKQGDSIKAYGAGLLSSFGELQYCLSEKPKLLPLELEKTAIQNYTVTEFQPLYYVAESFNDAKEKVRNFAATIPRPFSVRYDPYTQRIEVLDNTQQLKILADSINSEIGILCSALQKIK

[4] = target: T4, PAH I283N (Homo sapiens, UniProt P00439 P00439:1-452, I283N)
T4 sequence: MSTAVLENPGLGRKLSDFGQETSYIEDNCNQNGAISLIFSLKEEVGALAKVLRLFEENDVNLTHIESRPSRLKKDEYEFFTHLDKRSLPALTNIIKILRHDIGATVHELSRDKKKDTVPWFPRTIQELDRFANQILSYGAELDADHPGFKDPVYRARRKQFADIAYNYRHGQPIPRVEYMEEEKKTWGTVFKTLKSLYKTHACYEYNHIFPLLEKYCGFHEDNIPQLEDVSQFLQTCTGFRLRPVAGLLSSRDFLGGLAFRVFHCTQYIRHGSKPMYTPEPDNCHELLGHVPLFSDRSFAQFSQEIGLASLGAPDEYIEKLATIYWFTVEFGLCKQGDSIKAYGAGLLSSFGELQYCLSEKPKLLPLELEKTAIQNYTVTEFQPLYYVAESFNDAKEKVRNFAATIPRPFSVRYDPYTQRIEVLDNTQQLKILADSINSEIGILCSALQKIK

Measured: binding result

CAAAAUGCAUAUGUAUCUUUG (ssRNA) [HULC 181-201 mimic]
binds: all assays above
